Assay results reported in patent US8394607B2, “Anti-CD22 antibodies and immunoconjugates and methods of use” (Genentech, Inc., priority 2006, dated 2013).

Experiments:
[1] = target: T1, human CD22 (CD22beta) lacking domain 1, domain 2, or domains 3 and 4 (Homo sapiens, UniProt P20273); assay: Epitope mapping by flow cytometry on CHO cells expressing CD22 domain deletion variants; format: binding; conditions: flow cytometry, CHO cells
T1 construct: expressed in transfected cells
T1 sequence (P20273 22-670 isoform P20273-2): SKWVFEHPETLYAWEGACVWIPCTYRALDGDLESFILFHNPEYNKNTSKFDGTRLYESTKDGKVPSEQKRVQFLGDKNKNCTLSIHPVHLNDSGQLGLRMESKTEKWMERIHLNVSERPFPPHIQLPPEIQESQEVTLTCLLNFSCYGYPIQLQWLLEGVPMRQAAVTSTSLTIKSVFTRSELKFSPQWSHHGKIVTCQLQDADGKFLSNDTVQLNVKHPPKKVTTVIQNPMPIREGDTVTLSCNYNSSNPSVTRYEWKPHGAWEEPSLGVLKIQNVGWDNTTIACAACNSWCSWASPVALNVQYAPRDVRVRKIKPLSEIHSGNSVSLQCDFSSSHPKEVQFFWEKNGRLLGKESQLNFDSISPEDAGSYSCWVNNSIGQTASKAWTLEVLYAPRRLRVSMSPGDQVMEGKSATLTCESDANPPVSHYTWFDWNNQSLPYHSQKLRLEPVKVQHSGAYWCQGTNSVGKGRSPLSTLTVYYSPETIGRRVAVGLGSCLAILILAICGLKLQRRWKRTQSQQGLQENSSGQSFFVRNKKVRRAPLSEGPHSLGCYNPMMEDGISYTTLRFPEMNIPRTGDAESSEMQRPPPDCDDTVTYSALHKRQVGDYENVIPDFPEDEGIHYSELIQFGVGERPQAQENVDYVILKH
Experimental: (§1) The epitopes of CD22 to which 10F4.4.1 and 5E8.1.8 antibodies bound were determined according to the following procedures. CD22 sequences lacking various of the seven immunoglobulin-like domains of the major CD22 isoform (CD22beta) were cloned and transformed into cells for stable expression. For example, CD22 variants lacking domain 1 (Δ1), domain 2 (Δ2), or domains 3 and 4 (Δ3,4) were cloned, transformed into CHO cells, and expressed on the cells. Control cells expressed CD22beta. Deletions were performed using Stratagene QuikChange XL™ reagent kit. Deletion of domain 1 was performed by deletion of amino acids 22-138; deletion of domain 2 was performed by deletion of amino acids 139-242; and deleted domains 3 and 4 were available as the minor isoform CD22alpha (deletion of amino acids 241-417). All amino acid numbers refer to the numbering of full length precursor CD22beta by Wilson, G. L. et al. (see FIG. 1 in Wilson, G. L. et al., J. Exp. Med. 173:137-146 (1991)). FIG. 14 is a diagram of the deleted domains. Binding was determined by flow cytometry using an isotype control. Binding of 10F4.4.1 was detected using goat anti-mouse IgG Alexa 488. Binding of 5E8.1.8 was detected using biotinylated goat anti-mouse IgG plus streptavidin PE. […] Neither bound CD22 lacking domain 1 or domain 2, and both bound CD22 comprising domains 1 and 2, but lacking domains 3 and 4.

[2] = tested on: human CD22 (CD22beta) lacking domain 1, domain 2, or domains 3 and 4; assay: as above; format: binding
Experimental: as §1

[3] = target: T2, human CD22-beta-ECD-His tagged soluble antigen (Homo sapiens, UniProt P20273, A486R/Y639H); assay: BIACORE surface plasmon resonance binding to soluble CD22 ECD; conditions: BIACORE 3000, 25° C., antibody coupled to chip, soluble CD22 ECD injected; one-to-one Langmuir model
T2 sequence (P20273 22-681 A486R/Y639H): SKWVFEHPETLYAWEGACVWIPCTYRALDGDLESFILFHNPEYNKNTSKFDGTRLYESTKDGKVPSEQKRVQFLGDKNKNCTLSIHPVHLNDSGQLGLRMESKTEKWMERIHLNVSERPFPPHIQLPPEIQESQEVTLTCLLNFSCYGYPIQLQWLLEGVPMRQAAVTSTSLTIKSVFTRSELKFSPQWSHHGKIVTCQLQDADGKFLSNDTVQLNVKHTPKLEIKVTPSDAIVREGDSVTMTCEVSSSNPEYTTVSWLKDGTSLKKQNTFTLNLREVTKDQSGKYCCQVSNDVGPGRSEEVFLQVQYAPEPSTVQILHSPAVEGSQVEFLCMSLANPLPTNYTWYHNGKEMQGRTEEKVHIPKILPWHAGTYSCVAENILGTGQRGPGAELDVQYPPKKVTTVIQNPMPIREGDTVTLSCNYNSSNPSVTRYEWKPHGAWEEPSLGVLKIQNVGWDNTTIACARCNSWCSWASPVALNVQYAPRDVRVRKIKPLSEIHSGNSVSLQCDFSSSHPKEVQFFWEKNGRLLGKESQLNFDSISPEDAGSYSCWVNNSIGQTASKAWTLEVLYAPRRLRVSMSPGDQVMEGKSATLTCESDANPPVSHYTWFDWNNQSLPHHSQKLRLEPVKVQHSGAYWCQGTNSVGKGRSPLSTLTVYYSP
Experimental: The binding affinity of murine and humanized 10F4 antibody for soluble CD22 extracellular domain (ECD) was determined by surface plasmon resonance measurement using a BIACORE® 3000 system (Biacore, Inc., Piscataway, N.J.). Briefly, carboxymethylated dextran biosensor chips (CMS, Biacore Inc.) were activated with N-ethyl-N′-(3-dimethylaminopropyl)-carbodiimide hydrochloride (EDC) and N-hydroxysuccinimide (NHS) according to the supplier's instructions. These activated chips were coated with anti-CD22 IgG1 antibody 10F4 (murine or humanized) by dilution to 5 μg/ml with 10 mM sodium acetate, pH 4.8, before injection at a flow rate of 5 μl/minute to achieve approximately 500 response units (RU) of coupled antibody. Next, 1M ethanolamine was injected to block unreacted groups. […] Association rates (kon) and dissociation rates (koff) were calculated using a simple one-to-one Langmuir binding model (BIAevaluation Software version 3.2). The equilibrium dissociation constant (Kd) was calculated as the ratio koff/kon. Anti-CD22 antibody, RFB4, was used as a control (Chemicon International, Inc., Temecula, Calif., catalog no. CBL147).

human CD22 = assay: ELISA plate assays and FACS cell-based assays for selection of hybridoma antibodies; format: binding
Sequence of human CD22 (P20273 20-240 limits assumed): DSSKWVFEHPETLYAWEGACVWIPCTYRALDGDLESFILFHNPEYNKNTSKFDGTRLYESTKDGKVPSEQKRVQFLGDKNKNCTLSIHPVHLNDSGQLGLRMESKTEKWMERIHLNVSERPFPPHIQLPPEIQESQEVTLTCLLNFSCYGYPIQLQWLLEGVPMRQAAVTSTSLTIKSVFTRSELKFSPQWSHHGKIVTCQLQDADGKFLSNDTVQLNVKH
Experimental: Murine monoclonal antibodies capable of specifically binding human CD22 was prepared. BALB/c female mice, age six weeks, were immunized in their foot pads with purified human CD22 his-8 tagged extracellular domain lacking domains 3 and 4 (SEQ ID NO:30 (ECD) plus the sequence […] at the C-terminus) or CD22 his-8 tagged extracellular domain comprising domains 1-7 (SEQ ID NO:28 (ECD) plus the above His sequence tag) in Ribi's adjuvant. Subsequent injections were performed in the same manner at one and three weeks after the initial immunizations. […]
ELISA-based assays: Anti-CD22 antibody screening by ELISA is performed as follows, with all incubations done at room temperature. […] Data is obtained by reading the plates in an automated ELISA plate reader at an absorbance of 490 nm.
CHO cells expressing human CD22 on their surface were incubated with anti-CD22 hybridoma supernatant in 100 μl FACS buffer (0.1% BSA, 10 mM sodium azide in PBS, pH 7.4) for 30 minutes at 4° C. followed by one wash with FACS buffer. The amount of anti-CD22 binding was determined by incubating an aliquot of the antibody/cell mixture with a polyclonal FITC conjugated goat or rabbit anti-mouse IgG (Accurate Chem. Co., Westbury, N.Y.) (for murine test antibodies) or goat or rabbit anti-human IgG (for humanized antibodies) for 30 minutes at 4° C. followed by three washes with FACS buffer.

B1: Mu 10F4.4.1: murine anti-human CD22 monoclonal antibody, hybridoma ATCC PTA-7621 (antibody, V domains shown)
VH: QVQLQQSGPELVKPGASVKISCKASGYEFSRSWMNWVKQRPGQGREWIGRIYPGDGDTNYSGKFKGKATLTADKSSSTAYMQLSSLTSVDSAVYFCARDGSSWDWYFDVWGAGTTVTVSS
VL: DILMTQTPLSLPVSLGDQASISCRSSQSIVHSNGNTFLEWYLQKPGQSPKLLIYKVSNRFSGVPDRFSGSGSGTDFTLKISRVEAEDLGVYYCFQGSQFPYTFGGGTKVEIK
- binding to CD22 comprising domains 1 and 2 but lacking domains 3 and 4 [1]: both bound
- binding to CD22 lacking domain 1 or domain 2 ([2]; flow cytometry, CHO cells): Neither bound
- epitope (CD22 domains bound) ([2]; within amino acid 22 to amino acid 240 of SEQ ID NO:27): domains 1 and 2 of human CD22
- koff/10^−4 [3]: 2.8
- kon/10^5 [3]: 0.19
- specific binding to human CD22 (human CD22): bind specifically to human CD22
